{"source": "patent US20210093730A1", "about": "“BIOMARKERS FOR ANTIBODY-DRUG CONJUGATE MONOTHERAPY OR COMBINATION THERAPY” (Immunomedics, Inc., priority 2019, published 2021)", "key": {"[1]": {"system": "metastatic urothelial cancer", "assay": "Further study of sacituzumab govitecan in metastatic urothelial cancer (mUC), 32 pts enrolled", "assay_type": "in vivo, human", "from_the_text": "Response-evaluable pts received ≥2 doses, and had ≥1 post-baseline response assessment."}, "[2]": {"system": "diverse metastatic solid cancers", "quoted_text": "Patients were refractory/relapsed after standard treatment regimens for metastatic cancer."}, "[3]": {"system": "metastatic triple-negative breast cancer (TNBC)", "details": "second line or later; cited from earlier work"}, "[4]": {"system": "non-small cell lung cancer (NSCLC)", "details": "cited from earlier work"}, "[5]": {"details": "48 assessable pts excluding PDC"}, "[6]": {"details": "esophageal cancer, 4 assessable patients"}}, "note": "“And” between values parts separate entries of the source, which are not always exact repeats. Equal entries are not always repeated. Where two headings read alike, the source gives them in different places.", "data": [{"substance": "sacituzumab govitecan", "values": [{"measurement": "ORR, pts with 1 line of prior chemotherapy", "setting": "[1]; 7/13", "result": 53.8, "unit": "%"}, {"measurement": "ORR", "setting": "[1]; 25 assessable pts, 8 or 10 mg/kg days 1 and 8 every 21 days", "result": 36, "unit": "%"}, {"measurement": "grade 3 hypophosphatemia", "setting": "[1]; 25 pts", "result": 8, "unit": "%"}, {"measurement": "grade 4 neutropenia", "setting": "[1]; 25 pts", "result": 16, "unit": "%"}, {"measurement": "duration of response for CR/PR pts", "setting": "[1]; 95% CI 4.1-12.9", "result": 5.1, "unit": "mos"}, {"measurement": "median PFS", "setting": "[1]; all patients, 95% CI 4.9-10.7", "result": 7.2, "unit": "mos"}, {"measurement": "ORR, pts with 2 to 5 prior therapy lines", "setting": "[1]; in vivo", "result": 16.7, "unit": "%"}, {"measurement": "duration of grade 4 neutropenia", "setting": "[1]; in vivo", "result": "< 7", "unit": "days"}, {"measurement": "PR among pts with progression after prior IO", "setting": "[1]; of 4 pts", "result": 1, "unit": "patients"}, {"measurement": "complete responses (CR)", "setting": "[1]; of 25 pts", "result": 1, "unit": "patients"}, {"measurement": "partial responses (PR)", "setting": "[1]; of 25 pts", "result": 8, "unit": "patients"}, {"measurement": "pts with stable disease >4 mos", "setting": "[1]; of the SD pts", "result": "10/11"}, {"measurement": "partial response (PR), % of patients", "setting": "[2]; [5]", "result": 15, "unit": "%"}, {"measurement": "stable disease (SD), % of patients", "setting": "[2]; [5]", "result": 56, "unit": "%"}, {"measurement": "disease response, % of patients", "setting": "[2]; 48 assessable pts excluding PDC, printed 38 pts", "result": 79, "unit": "%"}, {"measurement": "maximum reduction in target lesions", "setting": "[2]; CRC case, after 10 months of treatment", "result": 65, "unit": "%"}, {"measurement": "CEA after treatment", "setting": "[2]; CRC case, decrease from 781 ng/mL", "result": 26.5, "unit": "ng/mL"}, {"measurement": "reduction in target lesions at first CT assessment", "setting": "[2]; CRC case, starting dose 8 mg/kg", "result": 37, "unit": "%"}, {"measurement": "total response [PR+SD]", "setting": "[2]; CRC, 12/18", "result": 67, "unit": "%"}, {"measurement": "PD, patients", "setting": "[2]; CRC, 18 assessable patients", "result": 6, "unit": "patients"}, {"measurement": "PR, patients", "setting": "[2]; CRC, 18 assessable patients", "result": 1, "unit": "patients"}, {"measurement": "primary target lesion size at first CT", "setting": "[2]; NSCLC case, 5.6 cm at start, after 6th dose", "result": 3.2, "unit": "cm"}, {"measurement": "total response [PR+SD]", "setting": "[2]; NSCLC, 4/5", "result": 80, "unit": "%"}, {"measurement": "PD, patients", "setting": "[2]; NSCLC, 5 assessable patients", "result": 1, "unit": "patients"}, {"measurement": "PR, patients", "setting": "[2]; NSCLC, 5 assessable patients", "result": 1, "unit": "patients"}, {"measurement": "reduction in target lesions", "setting": "[2]; SCLC case, 12 mg/kg reduced to 6.8 mg/kg, after two months", "result": 38, "unit": "%"}, {"measurement": "total response [PR+SD]", "setting": "[2]; SCLC, 2/4", "result": 50, "unit": "%"}, {"measurement": "PD, patients", "setting": "[2]; SCLC, 4 assessable patients", "result": 2, "unit": "patients"}, {"measurement": "PR, patients", "setting": "[2]; SCLC, 4 assessable patients", "result": 2, "unit": "patients"}, {"measurement": "total response [PR+SD]", "setting": "[2]; TNBC, 6/8", "result": 75, "unit": "%"}, {"measurement": "PD (progressive disease), patients", "setting": "[2]; TNBC, 8 assessable patients", "result": 2, "unit": "patients"}, {"measurement": "PR (partial response), patients", "setting": "[2]; TNBC, 8 assessable patients", "result": 2, "unit": "patients"}, {"measurement": "total response [PR+SD]", "setting": "[2]; all, 34/48", "result": 71, "unit": "%"}, {"measurement": "PD, patients", "setting": "[2]; all, 48 assessable patients", "result": 14, "unit": "patients"}, {"measurement": "PR, patients", "setting": "[2]; all, 48 assessable patients", "result": "Seven"}, {"measurement": "PR, patients", "setting": "[2]; all, 48 assessable patients, listed as hRS7-SN-38", "result": 7, "unit": "patients"}, {"measurement": "total response [PR+SD]", "setting": "[2]; esophageal cancer, 3/4", "result": 75, "unit": "%"}, {"measurement": "PD, patients", "setting": "[2]; [6]", "result": 1, "unit": "patients"}, {"measurement": "PR, patients", "setting": "[2]; [6]", "result": 1, "unit": "patients"}, {"measurement": "Abdominal pain, Grade 3", "setting": "[2]; in vivo", "result": 0}, {"measurement": "Abdominal pain, Grade 4", "setting": "[2]; in vivo", "result": 0}, {"measurement": "Abdominal pain, TOTAL", "setting": "[2]; in vivo", "result": 11, "unit": "%"}, {"measurement": "Alopecia, TOTAL", "setting": "[2]; in vivo", "result": 40, "unit": "%"}, {"measurement": "Anemia, Grade 4", "setting": "[2]; in vivo", "result": 0}, {"measurement": "Anemia, TOTAL", "setting": "[2]; in vivo", "result": 13, "unit": "%"}, {"measurement": "Deep vein thrombosis, Grade 3", "setting": "[2]; in vivo", "result": "1 (2%)"}, {"measurement": "Deep vein thrombosis, Grade 4", "setting": "[2]; in vivo", "result": 0}, {"measurement": "Deep vein thrombosis, TOTAL", "setting": "[2]; in vivo", "result": 2, "unit": "%"}, {"measurement": "Diarrhea, Grade 4", "setting": "[2]; in vivo", "result": 0}, {"measurement": "Diarrhea, TOTAL", "setting": "[2]; in vivo", "result": 47, "unit": "%"}, {"measurement": "Dysgeusia, Grade 3", "setting": "[2]; in vivo", "result": 0}, {"measurement": "Dysgeusia, Grade 4", "setting": "[2]; in vivo", "result": 0}, {"measurement": "Dysgeusia, TOTAL", "setting": "[2]; in vivo", "result": 15, "unit": "%"}, {"measurement": "Fatigue, Grade 4", "setting": "[2]; in vivo", "result": 0}, {"measurement": "Fatigue, TOTAL", "setting": "[2]; in vivo", "result": 55, "unit": "%"}, {"measurement": "Hypokalemia, Grade 3", "setting": "[2]; in vivo", "result": "1 (2%)"}, {"measurement": "Hypokalemia, Grade 4", "setting": "[2]; in vivo", "result": 0}, {"measurement": "Hypokalemia, TOTAL", "setting": "[2]; in vivo", "result": 11, "unit": "%"}, {"measurement": "Nausea, Grade 4", "setting": "[2]; in vivo", "result": 0}, {"measurement": "Nausea, TOTAL", "setting": "[2]; in vivo", "result": 53, "unit": "%"}, {"measurement": "Neutropenia, TOTAL", "setting": "[2]; in vivo", "result": 43, "unit": "%"}, {"measurement": "Pyrexia, Grade 3", "setting": "[2]; in vivo", "result": 0}, {"measurement": "Pyrexia, Grade 4", "setting": "[2]; in vivo", "result": 0}, {"measurement": "Pyrexia, TOTAL", "setting": "[2]; in vivo", "result": 13, "unit": "%"}, {"measurement": "Vomiting, Grade 4", "setting": "[2]; in vivo", "result": 0}, {"measurement": "Vomiting, TOTAL", "setting": "[2]; in vivo", "result": 32, "unit": "%"}, {"measurement": "WBC Decrease, Grade 3", "setting": "[2]; in vivo", "result": "1 (2%)"}, {"measurement": "WBC Decrease, Grade 4", "setting": "[2]; in vivo", "result": 0}, {"measurement": "WBC Decrease, TOTAL", "setting": "[2]; in vivo", "result": 6, "unit": "%"}, {"measurement": "alopecia", "setting": "[2]; in vivo", "result": 40, "unit": "%"}, {"measurement": "anemia, grade 3", "setting": "[2]; in vivo", "result": "2 (4%)"}, {"measurement": "anti-hRS7 or anti-SN-38 antibodies", "setting": "[2]; in vivo", "result": "No anti-hRS7 or anti-SN-38 antibodies were detected"}, {"measurement": "diarrhea", "setting": "[2]; in vivo", "result": 47, "unit": "%"}, {"measurement": "diarrhea >=G3", "setting": "[2]; in vivo", "result": 9, "unit": "%"}, {"measurement": "diarrhea, grade 3", "setting": "[2]; in vivo", "result": "4 (9%)"}, {"measurement": "fatigue", "setting": "[2]; in vivo", "result": 55, "unit": "%"}, {"measurement": "fatigue >=G3", "setting": "[2]; in vivo", "result": 9, "unit": "%"}, {"measurement": "fatigue, grade 3", "setting": "[2]; in vivo", "result": "4 (9%)"}, {"measurement": "nausea", "setting": "[2]; in vivo", "result": 53, "unit": "%"}, {"measurement": "nausea >=G3", "setting": "[2]; in vivo", "result": 0, "unit": "%"}, {"measurement": "nausea, grade 3", "setting": "[2]; in vivo", "result": 0}, {"measurement": "neutropenia >=G3", "setting": "[2]; in vivo", "result": 28, "unit": "%"}, {"measurement": "neutropenia G4", "setting": "[2]; in vivo", "result": 4, "unit": "%"}, {"measurement": "neutropenia, grade 3", "setting": "[2]; in vivo", "result": "11 (24%)"}, {"measurement": "neutropenia, grade 4", "setting": "[2]; in vivo", "result": "2 (4%)"}, {"measurement": "vomiting", "setting": "[2]; in vivo", "result": 32, "unit": "%"}, {"measurement": "vomiting >=G3", "setting": "[2]; in vivo", "result": 2, "unit": "%"}, {"measurement": "vomiting, grade 3", "setting": "[2]; in vivo", "result": "1 (2%)"}, {"measurement": "median time to progression (TTP), PDC pts", "setting": "[2]; pancreatic cancer, 8 wks in last prior therapy", "result": "12.7 wks and 11.9 wks"}, {"measurement": "TTP, remaining 48 pts", "setting": "[2]; range 6.0 to 51.4 wks", "result": "≥ 12.6", "unit": "wks"}, {"measurement": "median progression-free survival (PFS)", "setting": "[3]", "result": 5.5, "unit": "months"}, {"measurement": "overall survival (OS)", "setting": "[3]", "result": 13.0, "unit": "months"}, {"measurement": "response rate", "setting": "[3]", "result": 33.3, "unit": "%"}, {"measurement": "clinical benefit rate", "setting": "[4]; 47 patients", "result": 43, "unit": "%"}, {"measurement": "ORR", "setting": "[4]; 47 response assessable patients, median three prior therapies", "result": 19, "unit": "%"}, {"measurement": "median OS", "setting": "[4]; human, in vivo", "result": 9.5, "unit": "months"}, {"measurement": "median PFS", "setting": "[4]; human, in vivo", "result": 5.2, "unit": "months"}]}]}
